Experimental data published in the supplement of paper PMC10126150.
± gives the standard deviation of the averaged measurements.

Each sequence was assayed on ATP (assay: switch fluorescence ratio, 500 uM ATP over buffer (Cy3 cluster intensity, sum of 5 cycles each) (fold (ratio)); higher = stronger signal-on switching upon ATP binding; sequences stand for … in TCGTCGGCAGCGTCAGATGTGTATAAGAGACAGTTTTTTTTTTTTTTTTTTTTTTTTT…TC). Conditions: aptamer strand: ATP DNA aptamer (quencher-CACCTGGGGGAGTATTGCGGAGGAAGG + anchor), 100 nM annealed; ATP concentration: 500 uM.
In short: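 After annealing to 100 nM quencher-labelled ATP aptamer, Cy3-labelled switching-strand clusters on a modified Illumina MiSeq flow-cell were imaged in selection buffer. A second image followed after 15 min with 500 uM ATP at 22 °C, and five such buffer/ATP cycles were done, each separated by NaOH stripping and re-annealing. The fluorescence ratio, averaged per switch-domain sequence, is summed target-cycle over summed buffer-cycle Cy3 intensity per cluster, with clusters outside 100-1000 RFU excluded.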
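Also: ATP exposure 15 min at 22 °C before imaging.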

| Sequence | switch fluorescence ratio |
| --- | --- |
| TATCACAGTT | 1.01 ± 0.035 |
| CGAGGGTGAG | 1.01 ± 0.042 |
| CGAGTCGCGA | 1.04 ± 0.062 |
| AATGATAGTA | 1.006 ± 0.0034 |
| TTCCAGGCGT | 1.23 ± 0.055 |
| TATCTCTACT | 1.03 ± 0.017 |
| AAGTCATTTA | 0.9881 ± 0.0096 |
| CAATTATATG | 0.9961 ± 0.0071 |
| ATGGTTAGCT | 1.02 ± 0.027 |
| CCCATTTAGT | 1.04 ± 0.023 |
| ATTCGGGTTA | 0.99 ± 0.013 |
| AGGGTTTGAG | 1.11 ± 0.2 |
| GATTGTACTC | 1.022 ± 0.01 |
| AGTAAAGTGT | 0.99703 ± 0.00028 |
| TTTAGTTGGT | 1 ± 0.08 |
| TTATCGATGG | 0.987 ± 0.022 |
| CAGGTCATGC | 1.02 ± 0.058 |
| TAAAAGGACT | 1.03 ± 0.034 |
| TCGTTATTGG | 0.9844 ± 0.0023 |
| ATCAATGTTC | 1.07 ± 0.094 |
| GGTTAAGTGG | 1.01 ± 0.015 |
| CGGTAGTTTT | 0.99 ± 0.014 |
| CGTATAACTC | 1.11 ± 0.014 |

| Sequence | switch fluorescence ratio |
| --- | --- |
| TACACGAAAA | 1.13 ± 0.13 |
| AAGGTGAGGT | 1.038 ± 0.006 |
| GCATTGTAGG | 0.972 ± 0.041 |
| TCCCCTTGCT | 1.03 ± 0.094 |
| TCATTGGTAG | 1.001 ± 0.0054 |
| AGGGACGTTC | 0.967 ± 0.024 |
| AATACATCGG | 0.999 ± 0.022 |
| GCGTACAAGA | 1.04 ± 0.061 |
| TTAACAAGGA | 1.018 ± 0.0085 |
| AGGAGCGGTT | 1.02 ± 0.061 |
| CGTACTAAAA | 1.06 ± 0.036 |
| AGGATGCAGA | 1.01 ± 0.024 |
| TGCCTGGGTG | 2.74 ± 1.1 |
| TACTGGGCAC | 3.22 ± 3 |
| GGGAGTTAGG | 0.9609 ± 0.0049 |
| GAGGGACGGC | 0.999 ± 0.059 |
| ATAGGGTCCG | 0.977 ± 0.024 |
| GGAGTTGGGT | 0.984 ± 0.08 |
| ATAAGGAGTT | 1.01 ± 0.045 |
| TCTTGGCGCC | 0.97579 ± 0.00051 |
| CTTTACACAG | 1.0006 ± 0.00047 |
| GGACGTCGGA | 1.05 ± 0.12 |
| GGGGTTTTTT | 0.986 ± 0.026 |

| Sequence | switch fluorescence ratio |
| --- | --- |
| GAGAGAAGTG | 0.945 ± 0.022 |
| AAGGATAGGC | 1 ± 0.013 |
| TATTTAGGTG | 1.11 ± 0.018 |
| TCCAGCTAAA | 1.09 ± 0.014 |
| CCTGGTCGGC | 1.02 ± 0.035 |
| CTATGCGTAC | 3.51 ± 0.89 |
| GATAGGTTGT | 1.02 ± 0.035 |
| GTCAGGCTGA | 0.97427 ± 0.00022 |
| CGGAGTGAGG | 1.02 ± 0.014 |
| TGTCAGGGCC | 1.04 ± 0.053 |
| TATGCACGGA | 1.07 ± 0.09 |
| GGTAGTCCGG | 1.02 ± 0.054 |
| CAGGTGACGC | 1.07 ± 0.014 |
| TTGCGTTGGC | 0.984 ± 0.043 |
| AGGCGGCTTC | 1.03 ± 0.014 |
| AAAATCGAAA | 0.99 ± 0.015 |
| TTGTTCCCGT | 0.9839 ± 0.0013 |
| GTTGTGGGCG | 0.977 ± 0.12 |
| TGGGATAAAG | 0.9923 ± 0.0029 |
| TTTCAGTTTT | 1.1 ± 0.22 |
| ATAGTAAAGG | 0.994 ± 0.031 |
| GGCAAATGGG | 1.02 ± 0.012 |
| GGATAGGAGC | 0.964 ± 0.033 |

| Sequence | switch fluorescence ratio |
| --- | --- |
| CGTGGATACT | 1.23 ± 0.057 |
| ATCGTTTTGA | 0.989 ± 0.013 |
| TTCGTATACC | 0.988 ± 0.051 |
| TTAAATTGGT | 0.99 ± 0.025 |
| TACGCCTGTG | 1.01 ± 0.037 |
| GGCTGGGGTG | 1.04 ± 0.071 |
| ATGGGTGTCG | 1.05 ± 0.015 |
| GGTCACGGGT | 0.981 ± 0.031 |
| GGGGAAGACT | 0.989 ± 0.016 |
| TAGTGGTCCA | 0.98 ± 0.03 |
| TTTGCTAG | 1.013 ± 0.0095 |
| TTTCCAAAAT | 0.991 ± 0.026 |
| TGTTGGTAAT | 0.996 ± 0.012 |
| AAACGTGGGG | 1.01 ± 0.066 |
| CAGGACTTAT | 1.02 ± 0.064 |
| GGGGGTATAT | 1.03 ± 0.019 |
| TGGAAAGCTG | 1.04 ± 0.025 |
| TGACGGGTAC | 1.87 ± 0.087 |
| TTAAATATGG | 1.02 ± 0.033 |
| TCCCCGTCTG | 1.14 ± 0.15 |
| ATACGTTGAA | 1 ± 0.045 |
| AATGATGCCT | 0.995 ± 0.036 |
| ATAGGGTAAG | 0.965 ± 0.018 |

| Sequence | switch fluorescence ratio |
| --- | --- |
| TCAAACCGCA | 1.91 ± 0.16 |
| GAATGAGATT | 1.001 ± 0.0043 |
| CGAGGGAATG | 1.1 ± 0.18 |
| GTGGGATTAT | 1 ± 0.019 |
| TTCTGGCTAT | 1.01 ± 0.039 |
| TTTATTTCTA | 0.981 ± 0.013 |
| TCCCATTTTG | 1.01 ± 0.043 |
| TTTTTATCA | 0.9798 ± 0.0082 |
| CTAGTGCCAG | 1.016 ± 0.0069 |
| ACAGTTAGGT | 0.992 ± 0.034 |
| TTTTGATTGC | 1.03 ± 0.037 |
| AAAGAACACG | 1.05 ± 0.1 |
| TGTAGTTTGT | 0.973 ± 0.034 |
| TGAAGGGGCC | 2.74 ± 2.5 |
| TGTTGCGTGG | 0.992 ± 0.012 |
| GGGGATCGCG | 0.986 ± 0.033 |
| TTGCTTGGGA | 1.04 ± 0.014 |
| GGGACCATAT | 1.03 ± 0.015 |
| AAAGGGTTTG | 1.01 ± 0.033 |
| TTCCTGGTGG | 1.05 ± 0.073 |
| TTATACTGAA | 1.05 ± 0.021 |
| TGGAGCAGGG | 1.05 ± 0.036 |
| AGGTGTTTGC | 1.05 ± 0.028 |

| Sequence | switch fluorescence ratio |
| --- | --- |
| ACTTTTGGCG | 1 ± 0.071 |
| TAATACTCCT | 2.05 ± 0.073 |
| TCGGGGGGAC | 1.03 ± 0.036 |
| TCTTTCTTTT | 1.03 ± 0.027 |
| TAATAGGGGT | 1 ± 0.018 |
| GGCTCAATGG | 1.04 ± 0.031 |
| TGGAGAAGAT | 0.978 ± 0.03 |
| TTTCAGACAT | 1.016 ± 0.008 |
| GGTGCCGAAT | 0.998 ± 0.031 |
| TATGGGAAGC | 1.03 ± 0.025 |
| GGAGGCGGGC | 0.963 ± 0.12 |
| CTGTGTATGG | 0.989 ± 0.036 |
| TGCGGACAA | 0.9948 ± 0.0043 |
| ATGGTTCCAC | 0.997 ± 0.024 |
| ATAACAGGAT | 0.986 ± 0.033 |
| CTTCATAGGG | 0.968 ± 0.024 |
| TTTTTTCTTC | 1.04 ± 0.011 |
| TGGTTTTAAG | 0.98 ± 0.024 |
| AATTTAGAGT | 1 ± 0.012 |
| GGGGCGGGTG | 0.993 ± 0.039 |
| CAACAACTTC | 1.01 ± 0.0034 |
| GTATGGTCGG | 0.9991 ± 0.0074 |
| GGGAAGGGCA | 1.01 ± 0.049 |

| Sequence | switch fluorescence ratio |
| --- | --- |
| GCAGTATTTG | 0.99057 ± 2.4e-05 |
| GCAACCCTAA | 1.02 ± 0.055 |
| ATTGTAGTCT | 1.04 ± 0.06 |
| CGGTGAGGAC | 0.98264 ± 0.00074 |
| CGCACGGGGG | 1.01 ± 0.031 |
| CAACGTAGGT | 1.05 ± 0.013 |
| TTGAATGGTT | 0.994 ± 0.021 |
| CATGCTTGGC | 1.01 ± 0.055 |
| AAGGTAGGGG | 0.986 ± 0.018 |
| AGATGTGTGG | 0.989 ± 0.053 |
| GGGGTTGGCC | 0.986 ± 0.018 |
| TTTAGTATGG | 1.02 ± 0.042 |
| TTAAAAGGTC | 1.027 ± 0.0083 |
| GGCGTCAGGG | 1 ± 0.051 |
| TTAGGTGTTT | 1.54 ± 0.69 |
| CATGTGTAAT | 1.009 ± 0.0086 |
| CATGTTCTTT | 0.999 ± 0.026 |
| TTTACTTTGC | 1.48 ± 0.69 |
| CCGGGTATGG | 1.02 ± 0.016 |
